Test results taken from publication PMC4442312 (eLife, 2015).
Ends that are not written are not given here. Me3 = tri-methylated lysine; Me2 = di-methylated lysine

Columns and labels:
T7-ORCA (full-length) = target: T1, T7-ORCA (full-length) (human, UniProt Q9UFC0 1-647); assay: single-molecule pull-down (SiMPull); biotinylated T7 antibody on NeutrAvidin/PEG quartz slides; U2OS lysates co-expressing T7-ORCA and one YFP protein; TIRF, YFP photobleaching steps; biotinylated HA antibody as control; details: partners not purified
T1 construct: ORCA/LRWD1, full length; also called T7-tagged ORCA; full-length T7-ORCA; source: U2OS, transiently transfected, in lysate
T1 sequence (looked up): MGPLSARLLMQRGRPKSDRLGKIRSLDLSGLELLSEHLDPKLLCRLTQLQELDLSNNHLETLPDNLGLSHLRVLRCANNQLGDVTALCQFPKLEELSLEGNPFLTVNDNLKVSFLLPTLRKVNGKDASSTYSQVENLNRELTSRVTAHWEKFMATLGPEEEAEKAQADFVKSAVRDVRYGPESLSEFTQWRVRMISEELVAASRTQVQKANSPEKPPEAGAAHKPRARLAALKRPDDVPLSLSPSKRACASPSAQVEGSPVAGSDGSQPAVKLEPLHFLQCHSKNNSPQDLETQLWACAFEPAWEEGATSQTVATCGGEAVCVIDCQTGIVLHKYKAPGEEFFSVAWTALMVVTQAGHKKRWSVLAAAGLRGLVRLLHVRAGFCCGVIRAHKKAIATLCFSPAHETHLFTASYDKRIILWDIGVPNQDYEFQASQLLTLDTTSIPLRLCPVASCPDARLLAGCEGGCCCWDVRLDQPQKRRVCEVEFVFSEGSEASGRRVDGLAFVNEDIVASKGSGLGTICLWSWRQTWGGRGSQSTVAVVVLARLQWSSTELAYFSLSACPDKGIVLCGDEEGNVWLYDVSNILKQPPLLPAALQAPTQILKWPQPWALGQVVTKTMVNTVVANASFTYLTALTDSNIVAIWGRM

His-ORCA (baculovirus) = target: T2, His-ORCA (baculovirus) (human, UniProt Q9UFC0 1-647); assay: pull-down; H3 (1-15) peptides coupled to SulphoLink (iodoalkyl agarose) resin, incubated with baculovirally purified His-ORCA 2 hr at RT in PK 150 buffer (150 mM KCl, 0.02% NP-40); immunoblot; details: both partners purified
T2 construct: ORCA/LRWD1 in pFastBac HT-B; also called purified His-tagged-ORCA; baculovirally purified His-ORCA; source: Hi5 insect cells (baculovirus), nuclear extract, 45% ammonium sulfate precipitation; called 'baculovirally purified'
T2 sequence (looked up): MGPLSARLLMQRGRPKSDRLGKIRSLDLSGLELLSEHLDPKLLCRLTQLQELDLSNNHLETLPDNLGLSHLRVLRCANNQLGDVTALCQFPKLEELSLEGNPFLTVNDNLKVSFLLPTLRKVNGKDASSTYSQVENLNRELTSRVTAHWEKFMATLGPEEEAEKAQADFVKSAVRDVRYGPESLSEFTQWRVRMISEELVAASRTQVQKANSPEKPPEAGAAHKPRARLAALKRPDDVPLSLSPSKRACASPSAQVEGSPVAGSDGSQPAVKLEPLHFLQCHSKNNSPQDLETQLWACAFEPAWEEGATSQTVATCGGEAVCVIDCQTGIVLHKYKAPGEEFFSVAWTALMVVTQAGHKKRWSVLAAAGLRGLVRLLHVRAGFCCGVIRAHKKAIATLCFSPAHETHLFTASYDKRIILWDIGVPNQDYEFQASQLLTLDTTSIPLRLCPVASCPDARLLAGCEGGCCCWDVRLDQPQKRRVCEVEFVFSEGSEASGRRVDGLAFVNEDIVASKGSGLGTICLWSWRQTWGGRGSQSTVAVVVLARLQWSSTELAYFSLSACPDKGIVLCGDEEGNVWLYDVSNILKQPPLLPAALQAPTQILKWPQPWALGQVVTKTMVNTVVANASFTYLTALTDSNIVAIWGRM

B1: YFP-Suv39H1 (enzyme, UniProt O43463 1-412, looked up)
chain: MAENLKGCSVCCKSSWNQLQDLCRLAKLSCPALGISKRNLYDFEVEYLCDYKKIREQEYYLVKWRGYPDSESTWEPRQNLKCVRILKQFHKDLERELLRRHHRSKTPRHLDPSLANYLVQKAKQRRALRRWEQELNAKRSHLGRITVENEVDLDGPPRAFVYINEYRVGEGITLNQVAVGCECQDCLWAPTGGCCPGASLHKFAYNDQGQVRLRAGLPIYECNSRCRCGYDCPNRVVQKGIRYDLCIFRTDDGRGWGVRTLEKIRKNSFVMEYVGEIITSEEAERRGQIYDRQGATYLFDLDYVEDVYTVDAAYYGNISHFVNHSCDPNLQVYNVFIDNLDERLPRIAFFATRTIRAGEELTFDYNMQVDPVDMESTRMDSNFGLAGLPGSPKKRVRIECKCGTESCRKYLF
notes: Suv39H1; human clones in pEYFP and pSV2-YFP-mSuv39H1 are both named in the methods; source: U2OS, transiently transfected, in lysate
For B1, the “stoichiometry N” value (T7-ORCA (full-length)) was 1 Suv39H1 per ORCA.

B2: YFP-ORC1 (natural protein, UniProt Q13415 1-861, looked up)
chain: MAHYPTRLKTRKTYSWVGRPLLDRKLHYQTYREMCVKTEGCSTEIHIQIGQFVLIEGDDDENPYVAKLLELFEDDSDPPPKKRARVQWFVRFCEVPACKRHLLGRKPGAQEIFWYDYPACDSNINAETIIGLVRVIPLAPKDVVPTNLKNEKTLFVKLSWNEKKFRPLSSELFAELNKPQESAAKCQKPVRAKSKSAESPSWTPAEHVAKRIESRHSASKSRQTPTHPLTPRARKRLELGNLGNPQMSQQTSCASLDSPGRIKRKVAFSEITSPSKRSQPDKLQTLSPALKAPEKTRETGLSYTEDDKKASPEHRIILRTRIAASKTIDIREERTLTPISGGQRSSVVPSVILKPENIKKRDAKEAKAQNEATSTPHRIRRKSSVLTMNRIRQQLRFLGNSKSDQEEKEILPAAEISDSSSDEEEASTPPLPRRAPRTVSRNLRSSLKSSLHTLTKVPKKSLKPRTPRCAAPQIRSRSLAAQEPASVLEEARLRLHVSAVPESLPCREQEFQDIYNFVESKLLDHTGGCMYISGVPGTGKTATVHEVIRCLQQAAQANDVPPFQYIEVNGMKLTEPHQVYVQILQKLTGQKATANHAAELLAKQFCTRGSPQETTVLLVDELDLLWTHKQDIMYNLFDWPTHKEARLVVLAIANTMDLPERIMMNRVSSRLGLTRMCFQPYTYSQLQQILRSRLKHLKAFEDDAIQLVARKVAALSGDARRCLDICRRATEICEFSQQKPDSPGLVTIAHSMEAVDEMFSSSYITAIKNSSVLEQSFLRAILAEFRRSGLEEATFQQIYSQHVALCRMEGLPYPTMSETMAVCSHLGSCRLLLVEPSRNDLLLRVRLNVSQDDVLYALKDE
notes: origin recognition complex subunit 1; source: U2OS, transiently transfected, in lysate
In the case of B2, the “stoichiometry N” value (T7-ORCA (full-length)) is reported as 1 Orc1 per ORCA.

B3: Histone H3 (1–15) peptide, K9 di-methylated, N-terminal cysteine (peptide)
peptide: CARTKQTARK(Me2)STGGKA
notes: a cysteine at the N terminus, for coupling to the resin; human histone H3, amino acids 1-15; also called H3K9me2 peptide; source: synthetic peptide (Biomer technology), coupled to SulphoLink resin
B3: binds (His-ORCA (baculovirus)).

B4: Histone H3 (1–15) peptide, K9 mono-methylated, N-terminal cysteine (peptide)
peptide: CARTKQTARK(Me)STGGKA
notes: a cysteine at the N terminus, for coupling to the resin; human histone H3, amino acids 1-15; also called H3K9me1 peptide; source: synthetic peptide (Biomer technology), coupled to SulphoLink resin
B4: binds (His-ORCA (baculovirus)).

B5: Histone H3 (1–15) peptide, K9 tri-methylated, N-terminal cysteine (peptide)
peptide: CARTKQTARK(Me3)STGGKA
notes: a cysteine at the N terminus, for coupling to the resin; human histone H3, amino acids 1-15; also called H3K9me3 peptide; source: synthetic peptide (Biomer technology), coupled to SulphoLink resin
B5: binds (His-ORCA (baculovirus)).
